Measured values as given in publication PMC4928626.

Columns and labels:
[1] = target: aerobactin synthetase IucA from hypervirulent Klebsiella pneumoniae hvKP1 (Klebsiella pneumoniae hvKP1 (hypervirulent pathotype)); experiment: SAXS
[2] = target: aerobactin synthetase IucA from hypervirulent Klebsiella pneumoniae hvKP1 (Klebsiella pneumoniae hvKP1 (hypervirulent pathotype)); experiment: SEC
[3] = target: aerobactin synthetase IucA from hypervirulent Klebsiella pneumoniae hvKP1 (Klebsiella pneumoniae hvKP1 (hypervirulent pathotype)); experiment: native gel or EMSA

Measured: stoichiometry N

aerobactin synthetase IucA from hypervirulent Klebsiella pneumoniae hvKP1 (from UniProt A0ACD7U9R1 1-596) (enzyme)
4: [1] | [2] | [3]
